For one assay, the system named is Hq cortical neurons. As to the kind of experiment: NMDA excitotoxicity in Hq cortical neurons. In kind it is cell-based, mouse. The following applies: DPQ (30 μM) or zVAD (100 μM) in addition to NMDA. The method, then:
HQ cortical neuron cells were transduced with lentivirus carrying WT-AIF-Flag or Pbm-AIF-Flag. Non-transduced neurons and GFP-lentivirus infected cells were used as negative controls. […] In those photos, blue indicates Hoechst 33342 staining and red indicates propidium iodide staining. […] The cytotoxicity in these Hq cortical neurons was measured at 24 hours, 36 hours, and 48 hours after NMDA (500 μM for 5 min) treatment, and the data for this is reported in the graph of FIG. 18B.

Another assay has as its system HeLa cells. The assay can be described thus: AIF nuclear translocation in HeLa cells after MNNG. In kind it is cell-based. The following applies: MNNG 50 μM for 15 minutes. The method, then:
Unless otherwise set forth herein, immunocytochemistry, immunohistochemistry and confocal microscopy as referenced in the examples entailed the following materials and procedures. For immunocytochemistry, cells were fixed 2 hours after treatment with 4% paraformaldehyde, permeabilized with 0.05% Triton X-100, and blocked with 3% bovine serum albumin in PBS. AIF was visualized by 2 μg/ml mouse anti-Flag/Cyt AffiniPure Donkey Anti-Mouse IgG or rabbit anti-AIF/Cy3 AffiniPure Donkey Anti-Rabbit IgG. Immunohistochemistry was performed using the antibody against Flag. Immunofluorescence analysis thereafter was carried out by using a LSM510 confocal laser scanning microscope (obtained from Carl Zeiss Microlmaging) as described by H. Wang et al. (J. Neurosci, 2004).

In another assay the test system is Hq MEFs. The assay can be described thus: MNNG cytotoxicity in Hq MEFs. The following applies: zVAD 100 μM, 24 hours after MNNG 500 μM for 15 min. In kind it is cell-based, mouse. The method, then: Further, the effect WT-AIF-Flag or Pbm-AIF-Flag on Hq MEF cell viability was determined 24 hours after MNNG (500 μM for 15 min) cytotoxicity with and without zVAD (100 μM), and the results of three trials is reported in FIG. 17B.

In assay [1] the test system is Hq mouse cortical neuronal cultures. As to the kind of experiment: AIF translocation to the nucleus in Hq cortical neurons. It counts as cell-based. The following applies: 100 nM staurosporine, 24 hours. The method, then: Unless otherwise set forth herein, immunocytochemistry, immunohistochemistry and confocal microscopy as referenced in the examples entailed the following materials and procedures. […] AIF was visualized by 2 μg/ml mouse anti-Flag/Cyt AffiniPure Donkey Anti-Mouse IgG or rabbit anti-AIF/Cy3 AffiniPure Donkey Anti-Rabbit IgG. Immunohistochemistry was performed using the antibody against Flag. Immunofluorescence analysis thereafter was carried out by using a LSM510 confocal laser scanning microscope (obtained from Carl Zeiss Microlmaging) as described by H. Wang et al. (J. Neurosci, 2004).
Again, AIF translocation to the nucleus was monitored two hours after NMDA (500 μM, 5 minutes) treatment sufficient to initiate parthanatos in wild-type cells.

The subject of assay [2] is PAR. The assay can be described thus: biotin-labeled PAR pull-down assay. It counts as binding. The following applies: biotin-labeled PAR-conjugated NeutrAvidin beads. The source says: To confirm that Pbm-AIF fails to bind PAR, Applicants also performed four trials of biotin-labeled PAR pull-down assays on WT-AIF, Pbm-AIF, and histone H3. For this experiment, the pull-down assay used biotin-labeled PAR-conjugated NeutrAvidin beads. FIG. 10A comprises a composite black and white photograph depicting typical gels obtained in this pull-down assay.

A further assay relates to isolated mitochondria. As to the kind of experiment: AIF binding to isolated mitochondria. The following applies: for binding to mitochondria versus concentration: 0.1 ng/μl to 120.5 ng/μl, 30 minutes, room temperature; for binding percentage to mitochondria over time: 2.5 ng/μl, mitochondria 200 μg/ml, after 5 minutes; for depletion from the supernatant by mitochondria: untreated mitochondria, absence of PAR. The method, then:
One commonly accepted estimate is that approximately 20%-30% of AIF resides on the cytosolic side of the outer membrane of mitochondria, where it is poised to be rapidly released by PAR following PARP-1 activation. Applicants thus wanted to perform tests of AIF binding to mitochondria determine how readily purified WT-AIF and Pbm-AIF bind to mitochondria in a time- and concentration-dependent manner. Specifically, recombinant WT-AIF (2.5 ng/μl) and Pbm-AIF (2.5 ng/μl) were incubated with isolated mitochondria (200 μg/ml) for 1 minute, 5 minutes, 10 minutes, 15 minutes, 20 minutes or 30 minutes. […] The results of this portion of the experiment is provided by the graph of FIG. 15B.
To investigate the mechanism underlying mitochondrial AIF release following PARP-1 activation, Applicants incubated isolated mitochondria with purified non-tagged forms of AIF in the presence or absence of PAR and followed this by centrifugation to remove the mitochondria. Detection of AIF remaining in the supernatant was thereafter performed through immunoblot analysis.
The supernatant collected in the experiments of Example 16 were also analyzed for the presence of Tom20 and cyclochrome c.

For the next assay, the system named is isolated HeLa nuclei. As to the kind of experiment: nuclear shrinkage assay. It counts as biochemical. Conditions: non-tagged proteins incubated with isolated HeLa nuclei. The method, then:
Nuclei were obtained by purification from HeLa cells as described previously by A. Mandir et al. (J Neurosci, 2000). For the assay, purified nuclei were incubated with recombinant WT-AIF or Pbm-AIF (20 ng/ml) in the presence of ATP (2 mM), phosphocreatine (20 mM) and creatine kinase (50 μg/ml) for 90 minutes at 37° C. Nuclei were stained by DAPI and examined by fluorescence microscopy.
FIG. 11D comprises an array of color photographs showing the result of fluorescence microscopy for various cultures, as labeled in the figure, following DAPI staining. […] FIG. 11E is a chart reporting the result of a quantification of nuclei treated by WT-AIF, Pbm-AIF, and control (“CTL”), using Caspase 3 as a positive control.

Assay [3] relates to PAR. As to the kind of experiment: PAR overlay assay of full length AIF and mutants. In kind it is binding.
Assay [4] relates to PAR. The assay can be described thus: in vitro PAR-binding assay, twenty percent TBE-PAGE analysis. How it is done: To begin, 300 nM of purified WT-AIF or Pbm-AIF (i.e., AIF mutated in its PAR binding region) were incubated with ^32P-labeled PAR for 10 minutes at room temperature. Thereafter, samples were incubated with AIF antibody-linked protein G slurry for 1 hour. Samples were washed two times with PBS and boiled with 1× Laemmli sample buffer (obtained from BIO-RAD). Each soluble fraction was resolved in 20% TBE-PAGE. The gel was heat dried and developed using the Typhoon 9400 Imager.
(§1) To further ascertain whether full length recombinant AIF-Tm produced above (henceforth named “Pbm-AIF”) binds PAR, Applicants performed three iterations of an EMSA assay for PAR binding with recombinant WT-AIF and Pbm-AIF, using histone H3 as a control. […] FIG. 9 comprises a black and white photograph of EMSA gels showing representative results for WT-AIF and Pbm-AIF using ^32P-labeled PAR.

Assay [5] deals with PAR. The assay can be described thus: EMSA with 32P-labeled PAR. It counts as binding. The method, then:
The following experiment was performed to confirm whether AIF in fact binds to PAR. Applicants performed 3 trials of an overlay assay on recombinant AIF with affinity-purified biotin-labeled PAR. Histone H3, which binds to PAR with high affinity, was included as a positive control and bovine serum albumin (“BSA”) was included as a negative control, as described by P. Chang et al. (Nat Cell Bio, 2005). FIG. 1B depicts three photos side by side for gels representative of all trials for these overlay assays. […] Thus, Applicants took the results of these two tests as confirming that AIF binds to PAR in vitro.
as §1
(A gel shift assay detects complexes by their altered migration in electrophoresis.)

Where a chain is given by its changes, count along the chain named. In names and notes the source's numbering stands. Where two headings read alike, the source gives them in different places. Where a SMILES comes first, the peptide text is derived from it. The star is where a group is joined. Cbz = O=C(OCc1ccccc1)*; CH2F = FC*

For `O=C1NCCc2c(OCCCCN3CCCCC3)cccc21` [DPQ, 3,4-Dihydro-5[4-(1-piperindinyl)butoxy]-1(2H)-isoquinoline, reference compound], the “effect on NMDA-induced cortical neuron death” value with Hq cortical neurons is listed as “inhibited NMDA-induced cortical neuron death”. The “effect on nuclear translocation of AIF after MNNG” value in the assay with HeLa cells was “prevented the nuclear translocation of both endogenous AIF and WT-AIF-Flag”.

As for `CC(NC(=O)C(NC(=O)OCc1ccccc1)C(C)C)C(=O)NC(CC(=O)O)C(=O)CF` (stereo not drawn) [zVAD, reference compound] (Cbz-Val-Ala-Asp-CH2F; configuration not given here), the “effect on MNNG-induced cell death” value in the assay with Hq MEFs is reported as “failed to influence MNNG-induced cell death in MEFs”. In addition, in the assay on Hq cortical neurons, the “effect on NMDA-induced cortical neuron death” value is recorded as “did not”.

B1: Pbm-AIF: full length mouse AIF mutant R588A;K589A;K592A (PAR binding motif mutant) (protein)
chain: MFRCGGLAGAFKQKLVPLVRTVYVQRPKQRNRLPGNLFQQWRVPLELQMARQMASSGSSGGKMDNSVLVLIVGLSTIGAGAYAYKTIKEDQKRYNERVMGLGLSPEEKQRRAIASATEGGSVPQIRAPSHVPFLLIGGGTAAFAAARSIRARDPGARVLIVSEDPELPYMRPPLSKELWFSDDPNVTKTLQFRQWNGKERSIYFQPPSFYVSAQDLPNIENGGVAVLTGKKVVHLDVRGNMVKLNDGSQITFEKCLIATGGTPRSLSAIDRAGAEVKSRTTLFRKIGDFRALEKISREVKSITVIGGGFLGSELACALGRKSQASGIEVIQLFPEKGNMGKILPQYLSNWTMEKVKREGVKVMPNAIVQSVGVSGGRLLIKLKDGRKVETDHIVTAVGLEPNVELAKTGGLEIDSDFGGFRVNAELQARSNIWVAGDAACFYDIKLGRRRVEHHDHAVVSGRLAGENMTGAAKPYWHQSMFWSDLGPDVGYEAIGLVDSSLPTVGVFAKATAQDNPKSATEQSGTGIRSESETESEASEITIPPSAPAVPQVPVEGEDYGKGVIFYLRDKVVVGIVLWNVFNRMPIAAAIIADGEQHEDLNEVAKLFNIHED
On to B1, for which the “translocation to the nucleus after staurosporine” value in assay [1] is on record as “translocated to the nucleus”. In addition, in the assay on PAR [2], the “pull-down with biotin-labeled PAR” value is given as “only a barely detectable amount”. Further, the “binding to mitochondria versus concentration” value in the assay on isolated mitochondria is given as “bound to the mitochondria in a concentration dependent manner”. In the assay on isolated mitochondria, the “binding percentage to mitochondria over time” value was “equivalent”. In addition, the “effect of PAR on association with mitochondria” value in the assay with isolated mitochondria (5 nM PAR) is on record as “failed to affect association”; with isolated mitochondria (50 nM PAR), “barely detectable effects”; in the assay on isolated mitochondria (100 nM PAR) it was “partially reduced mitochondrial binding”. Also, in the assay on isolated mitochondria, the “depletion from the supernatant by mitochondria” value is listed as “effectively depleted”. The “chromatin condensation and nuclear shrinkage” value in the assay on isolated HeLa nuclei was “comparable levels of chromatin condensation and nuclear shrinkage”. In the assay on PAR [3] (His-tagged proteins, purified PAR, normalized to WT-AIF, result in words), the PAR binding entry is “nearly abolished PAR-binding”. The “reduced PAR binding” value in the assay with PAR [3] (radioactive signal normalized to WT-AIF) is 90%. For the same molecule, the “binding to 32P-PAR” value in the assay on PAR [4] was “failed to bind to ^32P-PAR”. In the assay with PAR [5], the PAR mobility shift entry was “no effect on PAR mobility”.

B2: WT-AIF: full length wild type mouse AIF (apoptosis-inducing factor), recombinant (protein)
chain: B1 chain with A588R, A589K, A592K
Take B2: the “pull-down with biotin-labeled PAR” value in the assay with PAR [2] is recorded as “pulled down with biotin-labeled PAR”. Moreover, the “binding to mitochondria versus concentration” value in the assay with isolated mitochondria is “bound to the mitochondria in a concentration dependent manner”. Besides, the “binding percentage to mitochondria over time” value in the assay with isolated mitochondria was “equivalent”. Further, the “effect of PAR on association with mitochondria” value is “failed to affect association” in the assay on isolated mitochondria (5 nM PAR), “increased the concentration of WT-AIF in the supernatant” in the assay on isolated mitochondria (50 nM PAR) and “almost completely abolished” in the assay with isolated mitochondria (100 nM PAR). Also, the “depletion from the supernatant by mitochondria” value in the assay on isolated mitochondria is listed as “effectively depleted”. For the same molecule, in the assay with isolated HeLa nuclei, the “chromatin condensation and nuclear shrinkage” value is “comparable levels of chromatin condensation and nuclear shrinkage”. Besides, the “effect of hundred fold excess of salmon sperm DNA on PAR binding” value in the assay with PAR [3] (overlay assay, 32P-labeled PAR) is “fails to disrupt”. Besides, in the assay on PAR [3] (overlay assay, affinity-purified biotin-labeled PAR), the “binding to biotin-labeled PAR” value is “bound to biotin-labeled PAR in a concentration-dependent manner”. Also, the “effect of salmon sperm DNA on PAR binding” value with PAR [3] (salmon sperm DNA at 760 μM) was “failed to disrupt PAR binding”. For the same molecule, the “binding to 32P-PAR” value in the assay on PAR [4] is “bound to ^32P-PAR of different lengths”. For the same molecule, the PAR mobility shift result is listed as “caused a PAR mobility shift in a concentration-dependent manner” with PAR [5] and “cause a shift of PAR polymer” in the assay with PAR [5] (listed as AIFm).

The values are drawn from patent publication US20120122765A1, “COMPOUNDS AND RELATED METHODS FOR MANIPULATING PARP-1-DEPENDENT CELL DEATH” (priority 2010, published 2012).
